Reference: patent US20180333469
Entries after “also recorded” stand apart in the source; their conditions may differ.

B1: wild-type factor Xa (fXa) (protein)
chain 1: ANSFLEEMKKGHLERECMEETCSYEEAREVFEDSDKTNEFWNKYKDGDQCETSPCQNQGKCKDGLGEYTCTCLEGFEGKNCELFTRKLCSLDNGDCDQFCHEEQNSVVCSCARGYTLADNGKACIPTGPYPCGKQTLER
chain 2: IVGGQECKDGECPWQALLINEENEGFCGGTILSEFYILTAAHCLYQAKRFKVRVGDRNTEQEEGGEAVHEVEVVIKHNRFTKETYDFDIAVLRLKTPITFRMNVAPACLPERDWAESTLMTQKTGIVSGFGRTHEKGRQSTRLKMLEVPYVDRNSCKLSSSFIITQNMFCAGYDTKQEDACQGDSGGPHVTRFKDTYFVTGIVSWGEGCARKGKYGIYTKVTAFLKWIDRSMKTRGLPKAKSHAPEVITSSPLK
B2: fVIIa/TF enzyme complex (protein)
chain 1: ANAFLEELRPGSLERECKEEQCSFEEAREIFKDAERTKLFWISYSDGDQCASSPCQNGGSCKDQLQSYICFCLPAFEGRNCETHKDDQLICVNENGGCEQYCSDHTGTKRSCRCHEGYSLLADGVSCTPTVEYPCGKIPILEKRNASKPQGRIVGGKVCPKGECPWQVLLLVNGAQLCGGTLINTIWVVSAAHCFDKIKNWRNLIAVLGEHDLSEHDGDEQSRRVAQVIIPSTYVPGTTNHDIALLRLHQPVVLTDHVVPLCLPERTFSERTLAFVRFSLVSGWGQLLDRGATALELMVLNVPRLMTQDCLQQSRKVGDSPNITEYMFCAGYSDGSKDSCKGDSGGPHATHYRGTWYLTGIVSWGQGCATVGHFGVYTRVSQYIEWLQKLMRSEPRPGVLLRAPFP
chain 2: SGTTNTVAAYNLTWKSTNFKTILEWEPKPVNQVYTVQISTKSGDWKSKCFYTTDTECDLTDEIVKDVKQTYLARVFSYPAGNVESTGSAGEPLYENSPEFTPYLETNLGQPTIQSFEQVGTKVNVTVEDERTLVRRNNTFLSLRDVFGKDLIYTLYYWKSSSSGKKTAKTNTNEFLIDVDKGENYCFSVQAVIPSRTVNRKSTDSPVECMGQEKGEFREIFYIIGAVVFVVIILVIILAISLHKCRKAGVGQSWKENSPLNVS

Target: tissue factor pathway inhibitor (TFPI), P10646
Sequence (P10646 whole entry, looked up): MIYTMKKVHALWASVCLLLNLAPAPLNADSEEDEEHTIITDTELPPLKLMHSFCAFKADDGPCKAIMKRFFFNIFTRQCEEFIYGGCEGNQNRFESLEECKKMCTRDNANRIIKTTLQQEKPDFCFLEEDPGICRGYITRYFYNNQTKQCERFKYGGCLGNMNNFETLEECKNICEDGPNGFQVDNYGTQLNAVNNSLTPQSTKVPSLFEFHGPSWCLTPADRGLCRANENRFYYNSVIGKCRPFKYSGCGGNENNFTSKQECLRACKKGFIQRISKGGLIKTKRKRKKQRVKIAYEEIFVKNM

Protein	fXa chromogenic activity (cleavage of Spectrozyme-fXa, 100 µM) after 2 hour incubation	fXa formation from fX (170 nM) by fVIIa/TF, measured by Spectrozyme-Xa cleavage
B1	For fXa at both 0.5 nM and 1 nM, a 2 nM concentration of TFPI was enough to almost completely inhibit the activity of fXa; also recorded: Such inhibition was also significant when TFPI's concentration was at 1 nM	–
B2	–	fXa combined with TFPI (included at the physiological concentration of 2.4 nM) and rapidly inhibited fVIIa/TF activity
